Starred links: 1 amine or outer side, 2 acyl side, 3 side chain; linkers in the order of their positions; H or OH if unused. Positions of bridges follow the written chain, without caps; N, C: chain ends. Non-standard residues stand in square brackets, D forms with d. Residues, ends and D or L forms follow the SMILES beside them. *: point of attachment. X9 = CCOCc1nc2c(NC(=O)[C@H](CCCCNC(=O)OCc3ccc(NC(=O)[C@H](CCCNC(N)=O)NC(=O)[C@@H](NC(=O)Cn4cc(CCC(=O)*)nn4)C(C)C)cc3)NC(C)=O)nc3ccccc3c2n1CC(C)(C)O; X14 = CCCOc1nc(NC(=O)CCCNC(=O)OCc2ccc(NC(=O)[C@H](CCCNC(N)=O)NC(=O)[C@@H](NC(=O)Cn3cc(CCC(=O)*)nn3)C(C)C)cc2)c2[nH]c(=O)n(Cc3ccc(OCCN(C)C)nc3)c2n1; X13 = CCOCc1nc2c(NC(=O)N(C)CCN(C)C(=O)OCc3ccc(NC(=O)[C@H](CCCNC(N)=O)NC(=O)[C@@H](NC(=O)Cn4cc(CCC(=O)*)nn4)C(C)C)cc3)nc3ccccc3c2n1CC(C)(C)O; X16 = CCCOc1nc(NC(=O)CCCSSC(C)CCC(=O)*)c2[nH]c(=O)n(Cc3ccc(OCCN(C)C)nc3)c2n1; X15 = CCOCc1nc2c(NC(=O)CCCSSC(C)CCC(=O)*)nc3ccccc3c2n1CC(C)(C)O; Resiquimod = CCOCc1nc2c(N*)nc3ccccc3c2n1CC(C)(C)O; 1Nal = N[C@@H](Cc1cccc2ccccc12)C(=O)O; TBMB = c1c(C[*:1])cc(C[*:3])cc1C[*:2]; Glutaryl = O=C(CCCC(=O)[*:2])[*:1]; Tle = CC(C)(C)[C@H](N)C(=O)O; βAla = NCCC(=O)O; Sar = CNCC(=O)O
What was measured:
[1] = Blood stability, mouse; assay type: in vitro ADME, CD-1 mouse; conditions: male
Protocol: CD-1 mouse blood (n≥2, male, fasted overnight) is collected from animals housed at an internal facility. (EDTA-K2 is used as anticoagulant)
The test compounds and positive control stock solutions are prepared to 10 mM in DMSO or ultrapure water. Control compounds bisacodyl, enalapril and propantheline known to be metabolised by blood are also incubated alongside each batch of test compounds I-7, I-22, I-24, I-25, I-27, and I-29 to I-33. The dosing solutions of test compounds and controls are prepared by diluting the stock solution with 45% MeOH/H2O to achieve 100 uM. Test compound solutions (final incubation concentration=2 μM) are incubated with blood (final DMSO concentration≤1%) at six different time points (0, 1, 2, 4, 6 and 24 hours) in duplicate (n=2). The reaction is terminated by adding 100 uL ultra-pure water, mixing well, then adding 800 uL of 100% methanol containing 200 ng/mL tolbutamide and 200 ng/mL labetalol as internal standards. Samples are then vortexed and centrifuged at 3200×g for 20 minutes. Following centrifugation, the concentration of test compound in the supernatant is determined semi-quantitatively by LC-MS/MS. The percentage of test compound remaining at the individual time points relative to the 0 hour sample is then reported. The percent remaining of test compound after incubation in blood is calculated using following equation: Percent Remaining=100×(PAR at appointed incubation time/PAR at T0 time) where PAR is the peak area ratio of analyte versus internal standard (IS).

[2] = Plasma stability, cyno; assay type: in vitro ADME; conditions: cynomolgus monkey, plasma, pH 7.4
Protocol: (§1) The pooled frozen mouse, rat, dog, monkey or human plasma is thawed in a water bath at 37° C. prior to experiment. Plasma is centrifuged at 4000 rpm for 5 min and the clots are removed if any. […] For positive controls, 100 μM intermediate solution is prepared by diluting 20 μL of the stock solution with 180 μL 45% MeOH/H2O. […] For compounds I-7 to […]-17, […]-22, and […]-33, at each time point (0, 1, 2, 4, 6 and 24 hr), reactions were stopped by removing the plates from water bath and 200 μL 20 mM NH4OAC mix well first and then adding 800 μL of ice-cold stop solution (200 ng/mL Labetalol, 200 ng/mL Tolbutamide, 500 ng/mL N6-Ben and 40 mM DBAA in 100% Methanol). […] Sample plates were vortexed immediately on a plate shaker at 800 rpm for 10 min and then centrifuged at 4,000 rpm for 10 min. An aliquot of supernatant (200 μL) is transferred from each well before submitting to LC-MS/MS analysis. The percentage of test compound remaining at the individual time points relative to the 0 hour sample is calculated using following equation: Percent Remaining=100×(PAR at appointed incubation time/PAR at T0 time) where PAR is the peak area ratio of analyte versus internal standard (IS).

[3] = Plasma stability, human; assay type: in vitro ADME; conditions: human, plasma, pH 7.4
Protocol: as §1

[4] = Plasma stability, mouse; assay type: in vitro ADME; conditions: mouse, plasma, pH 7.4
Protocol: as §1

[5] = Plasma stability, rat; assay type: in vitro ADME; conditions: rat, plasma, pH 7.4
Protocol: as §1

CCOCc1nc2c(NC(=O)N(C)CCN(C)C(=O)OCc3ccc(NC(=O)[C@H](CCCNC(N)=O)NC(=O)[C@@H](NC(=O)Cn4cc(CCC(=O)NCCC(=O)N(C)CC(=O)N(C)CC(=O)N(C)CC(=O)N(C)CC(=O)N(C)CC(=O)N(C)CC(=O)N(C)CC(=O)N(C)CC(=O)N(C)CC(=O)N(C)CC(=O)N[C@@H](C)C(=O)N[C@H]5CSCc6cc7cc(c6)CSC[C@H](NC(=O)[C@@H](C)NC(=O)[C@H](Cc6cccc8ccccc68)NC(=O)[C@H](CCC(=O)O)NC(=O)[C@H](CC(N)=O)NC(=O)[C@@H](C)NC5=O)C(=O)N[C@@H](CCC(=O)O)C(=O)N[C@@H](CC(=O)O)C(=O)N[C@@H](Cc5ccccc5)C(=O)N[C@@H](Cc5ccc(O)cc5)C(=O)N[C@@H](CC(=O)O)C(=O)N[C@@H](C(C)(C)C)C(=O)N[C@H](C(N)=O)CSC7)nn4)C(C)C)cc3)nc3ccccc3c2n1CC(C)(C)O [1-31] ({X13-βAla}-[Sar][Sar][Sar][Sar][Sar][Sar][Sar][Sar][Sar][Sar]AC[dA]NE[1Nal][dA]CEDFYD[Tle]C-NH2; linker 12-18-25 via TBMB)
half-life at 2 μM ([1]; CD-1, mouse): 6 to 24 h

CCCOc1nc(NC(=O)CCCSSC(C)CCC(=O)NCCC(=O)N(C)CC(=O)N(C)CC(=O)N(C)CC(=O)N(C)CC(=O)N(C)CC(=O)N(C)CC(=O)N(C)CC(=O)N(C)CC(=O)N(C)CC(=O)N(C)CC(=O)N[C@@H](C)C(=O)N[C@H]2CSCc3cc4cc(c3)CSC[C@H](NC(=O)[C@@H](C)NC(=O)[C@H](Cc3cccc5ccccc35)NC(=O)[C@H](CCC(=O)O)NC(=O)[C@H](CC(N)=O)NC(=O)[C@@H](C)NC2=O)C(=O)N[C@@H](CCC(=O)O)C(=O)N[C@@H](CC(=O)O)C(=O)N[C@@H](Cc2ccccc2)C(=O)N[C@@H](Cc2ccc(O)cc2)C(=O)N[C@@H](CC(=O)O)C(=O)N[C@@H](C(C)(C)C)C(=O)N[C@H](C(N)=O)CSC4)c2[nH]c(=O)n(Cc3ccc(OCCN(C)C)nc3)c2n1 (stereo partly drawn) [I-23] ({X16-βAla}-[Sar][Sar][Sar][Sar][Sar][Sar][Sar][Sar][Sar][Sar]AC[dA]NE[1Nal][dA]CEDFYD[Tle]C-NH2; linker 12-18-25 via TBMB)
half-life at 2 μM [2]: < 2 h | half-life at 2 μM [3]: < 2 h | half-life at 2 μM [4]: < 2 h | half-life at 2 μM [5]: < 2 h

CCOCc1nc2c(NC(=O)[C@H](CCCCNC(=O)OCc3ccc(NC(=O)[C@H](CCCNC(N)=O)NC(=O)[C@@H](NC(=O)Cn4cc(CCC(=O)NCCC(=O)N(C)CC(=O)N(C)CC(=O)N(C)CC(=O)N(C)CC(=O)N(C)CC(=O)N(C)CC(=O)N(C)CC(=O)N(C)CC(=O)N(C)CC(=O)N(C)CC(=O)N[C@@H](C)C(=O)N[C@H]5CSCc6cc7cc(c6)CSC[C@H](NC(=O)[C@@H](C)NC(=O)[C@H](Cc6cccc8ccccc68)NC(=O)[C@H](CCC(=O)O)NC(=O)[C@H](CC(N)=O)NC(=O)[C@@H](C)NC5=O)C(=O)N[C@@H](CCC(=O)O)C(=O)N[C@@H](CC(=O)O)C(=O)N[C@@H](Cc5ccccc5)C(=O)N[C@@H](Cc5ccc(O)cc5)C(=O)N[C@@H](CC(=O)O)C(=O)N[C@@H](C(C)(C)C)C(=O)N[C@H](C(N)=O)CSC7)nn4)C(C)C)cc3)NC(C)=O)nc3ccccc3c2n1CC(C)(C)O [I-24] ({X9-βAla}-[Sar][Sar][Sar][Sar][Sar][Sar][Sar][Sar][Sar][Sar]AC[dA]NE[1Nal][dA]CEDFYD[Tle]C-NH2; linker 12-18-25 via TBMB)
half-life at 2 μM ([1]; CD-1, mouse): 6 to 24 h | half-life at 2 μM [2]: > 24 h | half-life at 2 μM [3]: > 24 h | half-life at 2 μM [4]: 6 to 24 h | half-life at 2 μM [5]: 6 to 24 h

CCOCc1nc2c(NC(=O)CCCC(=O)NCCC(=O)N(C)CC(=O)N(C)CC(=O)N(C)CC(=O)N(C)CC(=O)N(C)CC(=O)N(C)CC(=O)N(C)CC(=O)N(C)CC(=O)N(C)CC(=O)N(C)CC(=O)N[C@@H](C)C(=O)N[C@H]3CSCc4cc5cc(c4)CSC[C@H](NC(=O)[C@@H](C)NC(=O)[C@H](Cc4cccc6ccccc46)NC(=O)[C@H](CCC(=O)O)NC(=O)[C@H](CC(N)=O)NC(=O)[C@@H](C)NC3=O)C(=O)N[C@@H](CCC(=O)O)C(=O)N[C@@H](CC(=O)O)C(=O)N[C@@H](Cc3ccccc3)C(=O)N[C@@H](Cc3ccc(O)cc3)C(=O)N[C@@H](CC(=O)O)C(=O)N[C@@H](C(C)(C)C)C(=O)N[C@H](C(N)=O)CSC5)nc3ccccc3c2n1CC(C)(C)O [I-25] ({Resiquimod-Glutaryl-βAla}-[Sar][Sar][Sar][Sar][Sar][Sar][Sar][Sar][Sar][Sar]AC[dA]NE[1Nal][dA]CEDFYD[Tle]C-NH2; linker 12-18-25 via TBMB)
half-life at 2 μM ([1]; CD-1 mouse blood, 2 μM, read-out: T1/2 (mouse)): > 24 h | half-life at 2 μM [2]: > 24 h | half-life at 2 μM [3]: > 24 h | half-life at 2 μM [4]: > 24 h | half-life at 2 μM [5]: > 24 h

CCCOc1nc(NC(=O)CCCNC(=O)OCc2ccc(NC(=O)[C@H](CCCNC(N)=O)NC(=O)[C@@H](NC(=O)Cn3cc(CCC(=O)NCCC(=O)N(C)CC(=O)N(C)CC(=O)N(C)CC(=O)N(C)CC(=O)N(C)CC(=O)N(C)CC(=O)N(C)CC(=O)N(C)CC(=O)N(C)CC(=O)N(C)CC(=O)N[C@@H](C)C(=O)N[C@H]4CSCc5cc6cc(c5)CSC[C@H](NC(=O)[C@@H](C)NC(=O)[C@H](Cc5cccc7ccccc57)NC(=O)[C@H](CCC(=O)O)NC(=O)[C@H](CC(N)=O)NC(=O)[C@@H](C)NC4=O)C(=O)N[C@@H](CCC(=O)O)C(=O)N[C@@H](CC(=O)O)C(=O)N[C@@H](Cc4ccccc4)C(=O)N[C@@H](Cc4ccc(O)cc4)C(=O)N[C@@H](CC(=O)O)C(=O)N[C@@H](C(C)(C)C)C(=O)N[C@H](C(N)=O)CSC6)nn3)C(C)C)cc2)c2[nH]c(=O)n(Cc3ccc(OCCN(C)C)nc3)c2n1 [I-26] ({X14-βAla}-[Sar][Sar][Sar][Sar][Sar][Sar][Sar][Sar][Sar][Sar]AC[dA]NE[1Nal][dA]CEDFYD[Tle]C-NH2; linker 12-18-25 via TBMB)
half-life at 2 μM [2]: < 2 h | half-life at 2 μM [3]: < 2 h | half-life at 2 μM [4]: < 2 h | half-life at 2 μM [5]: < 2 h

CCOCc1nc2c(NC(=O)CCCSSC(C)CCC(=O)NCCC(=O)N(C)CC(=O)N(C)CC(=O)N(C)CC(=O)N(C)CC(=O)N(C)CC(=O)N(C)CC(=O)N(C)CC(=O)N(C)CC(=O)N(C)CC(=O)N(C)CC(=O)N[C@@H](C)C(=O)N[C@H]3CSCc4cc5cc(c4)CSC[C@H](NC(=O)[C@@H](C)NC(=O)[C@H](Cc4cccc6ccccc46)NC(=O)[C@H](CCC(=O)O)NC(=O)[C@H](CC(N)=O)NC(=O)[C@@H](C)NC3=O)C(=O)N[C@@H](CCC(=O)O)C(=O)N[C@@H](CC(=O)O)C(=O)N[C@@H](Cc3ccccc3)C(=O)N[C@@H](Cc3ccc(O)cc3)C(=O)N[C@@H](CC(=O)O)C(=O)N[C@@H](C(C)(C)C)C(=O)N[C@H](C(N)=O)CSC5)nc3ccccc3c2n1CC(C)(C)O (stereo partly drawn) [I-28] ({X15-βAla}-[Sar][Sar][Sar][Sar][Sar][Sar][Sar][Sar][Sar][Sar]AC[dA]NE[1Nal][dA]CEDFYD[Tle]C-NH2; linker 12-18-25 via TBMB)
half-life at 2 μM [2]: 2 to 6 h | half-life at 2 μM [3]: < 2 h | half-life at 2 μM [4]: < 2 h | half-life at 2 μM [5]: < 2 h

CCOCc1nc2c(NC(=O)N(C)CCN(C)C(=O)OCc3ccc(NC(=O)[C@H](CCCNC(N)=O)NC(=O)[C@@H](NC(=O)Cn4cc(CCC(=O)NCCC(=O)N(C)CC(=O)N(C)CC(=O)N(C)CC(=O)N(C)CC(=O)N(C)CC(=O)N(C)CC(=O)N(C)CC(=O)N(C)CC(=O)N(C)CC(=O)N(C)CC(=O)N[C@@H](C)C(=O)N[C@H]5CSCc6cc7cc(c6)CSC[C@H](NC(=O)[C@@H](C)NC(=O)[C@H](Cc6cccc8ccccc68)NC(=O)[C@H](CCC(=O)O)NC(=O)[C@H](CC(N)=O)NC(=O)[C@@H](C)NC5=O)C(=O)N[C@@H](CCC(=O)O)C(=O)N[C@@H](CC(=O)O)C(=O)N[C@@H](Cc5ccccc5)C(=O)N[C@@H](Cc5ccc(O)cc5)C(=O)N[C@@H](CC(=O)O)C(=O)N[C@@H](C(C)(C)C)C(=O)N[C@H](C(N)=O)CSC7)nn4)C(C)C)cc3)nc3ccccc3c2n1CC(C)(C)O [I-31] ({X13-βAla}-[Sar][Sar][Sar][Sar][Sar][Sar][Sar][Sar][Sar][Sar]AC[dA]NE[1Nal][dA]CEDFYD[Tle]C-NH2; linker 12-18-25 via TBMB)
half-life at 2 μM [2]: > 24 h | half-life at 2 μM [3]: > 24 h | half-life at 2 μM [4]: > 24 h | half-life at 2 μM [5]: > 24 h
